Results on one molecule are retold here after patent US20240368617A1, “NPR1 VARIANT TO ENHANCE PLANT RESISTANCE TO BIOTIC AND ABIOTIC STRESSES AND METHOD THEREOF” (Duke University, published 2024).

Test in all cases: EMSA
For orientation: A gel shift assay detects complexes by their altered migration in electrophoresis.

Data set [1] has as its target NPR1 (Arabidopsis thaliana, UniProt P93002 SEQ:1-593). Particulars: tags: His10-MBP (PreScission site) N-terminal, C-terminal Strep tag; E. coli; chain copies: 2 (stated); label: 6-FAM. As to the method:
(§1) The npr1(dim) mutant (L49D/F53D/V56D/V83K) was cloned into the pTrcHis vector (Thermo Fisher Scientific) as a His10-MBP fusion protein containing a PreScission protease site following MBP and a C-terminal Strep tag, and was expressed and purified similarly to the WT NPR 1 protein. Purified TGA3 (Asn87-Thr384) at a concentration of 0.6 μM and WT NPR1 or the npr1(dim) mutant at a concentration of 8 μM were used in the EMSA with the 6-fluorescein (6-FAM)-labelled oligonucleotide probes (200 nM) containing the LS5 and LS7 as-I cis-elements of the SA-responsive PRI gene promoter (LS5/LS7, 6-FAM-C-ggg[…]ggg) or DNA sequences with the two as-1 regions replaced with adenosines (LS5/LS7, 6-FAM-C-ggg[…]ggg), with the LS7 as-1 element replaced with adenosines (LS5/LS7, 6-FAM-C-ggg[…]-GAggg) or with the LS5 as-1 element replaced with adenosines (LS5/LS7, 6-FAM-C-ggg[…]ggg) as well as their complementary oligonucleotides (Integrated DNA Technologies). The uppercase bases indicate the LS5/LS7 sequence; the lowercase bases indicate overhangs outside the LS5/LS7 sequence; and bases replaced with adenosines are indicated with A's in the small capital font. Pairs of complementary DNA strands were annealed before the binding reaction. For each binding reaction, the desired protein combination was mixed with the target DNA probe together with 30 ng/μL of poly (dI-dC) (non-specific competitor, Thermo Fisher Scientific) in a binding buffer containing 20 mM HEPES (pH 8.0), 300 mM NaCl, 10% glycerol, 1 mM DTT and 0.2 mM SA. […] After electrophoresis, the gel was scanned with the Typhoon FLA 7000 imager (GE Healthcare).

In data set [2] the target is T1, TGA3 (Asn87-Thr384) (Arabidopsis thaliana, UniProt Q39234 Q39234:87-384).
T1 sequence: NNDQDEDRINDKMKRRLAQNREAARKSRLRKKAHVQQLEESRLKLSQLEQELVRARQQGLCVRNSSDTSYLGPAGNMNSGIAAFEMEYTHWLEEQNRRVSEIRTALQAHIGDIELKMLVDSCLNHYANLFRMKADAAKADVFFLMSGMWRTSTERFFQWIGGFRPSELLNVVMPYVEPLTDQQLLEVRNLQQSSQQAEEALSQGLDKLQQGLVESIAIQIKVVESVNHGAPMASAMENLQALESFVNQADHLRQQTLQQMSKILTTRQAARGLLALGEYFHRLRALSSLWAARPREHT
As to conditions: tags: His10-MBP (PreScission site) N-terminal, C-terminal tandem Flag-HA; AT1G22070; E. coli; label: 6-FAM. As to the method:
as §1

Data set [3] addresses TGA3 (Asn87-Thr384) + NPR1 complex (Arabidopsis thaliana, UniProt Q39234;P93002 Q39234:87-384,P93002:1-593). Particulars: tags: TGA3-Flag-HA; NPR1-Strep; chain copies: TGA3 dimer x2 + NPR1 dimer (stated); label: 6-FAM. As to the method: as §1

B1: PR1 promoter LS5/LS7 (dsDNA)
DNA 1: GGGCTATGACGTAAGTAAAATAGTGACGTAGAGAGGG
DNA 2: CCCTCTCTACGTCACTATTTTACTTACGTCATAGCCC
Turning to B1, the binding result in data set [1] is on record as “no binding”; in data set [2] it was “binds”; in data set [3] it was “binds”.
